Measurements published in patent US20260234276A1 (DOMAIN THERAPEUTICS, published 2026).
Residue numbers refer to the chain shown, from its start. “And” between values parts separate entries of the source, which are not always exact repeats. Identical values can stand only once.

B1: 3-50 (antibody, V domains shown)
VH: EVQLQQSGPELVKPGASVKISCKASVYSFTGSYMHWVKQSHVKSLEWIGRINPYNGATSYNQNFKDKASLTVDKSSSTAYMELHSLTSEDSAVYYCATTLLRLLDYWGQGTTLTVSS
VL: DIVMTQAAFSNPVTLGTSASISCRSSKSLLHSNGITYLYWYLQKPGQSPQLLIYQMSNLASGVPDRFSSSGSGTDFTLRISRVEAEDVGVYYCAQNLELPWTFGGGTKLEIK
B2: 3-76 (antibody, human IgG1, kappa, V domains shown)
VH: EVQLVESGGGLVQPGRSLRLSCTASGFTFNTYAMNWVRQAPGKGLEWVARIRSKSNNYATYYAASVKGRFTISRDDSKSIAYLQMNSLKTEDTAVYYCVRGREAYYRYDGGYYAMDVWGQGTTVTVSS
VL: DIVMTQAAPSLPVTPGESASISCRSSKSLLHSNGNTYLYWFLQKPGQSPQLLIYRMSNLASGVPDRFSGSGSGTAFTLKISRVEAEDVGVYYCMQHLEYPFTFGSGTKLEIKR
notes: humanized, human IgG1 kappa
B3: 3-83 (antibody)
heavy: not shown
light: DIVMTQAAPSLSVTPGESASISCTSSKSLLHSNGNTYLYWFLQKPGQSPQLLIYRMSNLASGVPDRFSGSGSGTAFTLKISRVEAEDVGVYYCMQHREYPFTFGSGTKLEIKRTVAAPSVFIFPPSDEQLKSGTASVVCLLNNFYPREAKVQWKVDNALQSGNSQESVTEQDSKDSTYSLSSTLTLSKADYEKHKVYACEVTHQGLSSPVTKSFNRGEC
B4: 3-85 (antibody)
heavy: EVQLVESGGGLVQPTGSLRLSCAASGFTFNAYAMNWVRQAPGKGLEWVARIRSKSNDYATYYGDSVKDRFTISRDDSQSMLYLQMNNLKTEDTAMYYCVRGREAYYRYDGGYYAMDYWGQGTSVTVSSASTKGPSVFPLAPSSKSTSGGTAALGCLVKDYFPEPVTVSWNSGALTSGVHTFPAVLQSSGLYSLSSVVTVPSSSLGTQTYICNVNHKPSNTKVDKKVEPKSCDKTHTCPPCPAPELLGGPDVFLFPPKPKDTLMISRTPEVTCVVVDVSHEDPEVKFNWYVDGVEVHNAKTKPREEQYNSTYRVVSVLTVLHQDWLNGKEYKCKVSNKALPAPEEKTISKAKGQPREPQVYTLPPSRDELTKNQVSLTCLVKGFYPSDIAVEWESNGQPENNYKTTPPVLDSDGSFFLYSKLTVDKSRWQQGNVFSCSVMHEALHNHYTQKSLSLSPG
light: B3 light with L11V, A19V, K44R, K79R
B5: 3-53 (antibody, V domains shown)
VH: QVQVQQSGAELARPGASVKMSCKASGYTFTTYAMHWVKQRPGQGLEWIGHINPSSGYSNYNQKFKDKATLTADKSSSTAYMQLSSLTSEDSAVYYCARSEVRRGYFDVWGAGTTVTVSS
VL: DIQMTQTTSSLSASLGDRVTISCRTSQDIRNYLNWYQQKPDGTVKLLISYTSRLHSGVPSRFSGSGSGTDYSLTISNLEQEDFATYFCQQGNTLPPTFGGGTRVEIK
B6: 3-13 (antibody, V domains shown)
VH: KVQLQQSGPELVKPGASVKISCKTSGYTFTEYTIHWVQQIHGKSPEWIGGINPNGDTRYDQKFKGKATLTIDKSSSTAYMELRSLTSEDSAVYYCARVARFYGISPYAMDYWGQGTSVTVSS
VL: DVVMTQTPLSLPVSLGDQASISCRCTQSLLHSNGDTYLHWYLQKPGQSPNLLIYKVSNRFSGVPDRFSGSGSGTDFTLKINRVEAEDLGVYFCSQSTHVPYTFGGGTNLEIK
B7: 3-33 (antibody, V domains shown)
VH: EVQLQQSGPELVKPGASVKISCKTSGYTFTEYTIHWVKQSHGESLEWVGGINPNNGNTRYDQKFKGKATLTIDKSSSPAYMELRSLTSEDSAVYYCARVARSSGSGPYAMDYWGQGTSVTVSS
VL: B6 VL with S32T, N50K, N81S, N108K
B8: 3-21 (antibody, V domains shown)
VH: QVQLKESGPGLVAPSQSLSITCTVSGLSMNDYVVTWIRQPPGKGLEWLGVIWGGGNTYYNSDLKSRLSITKDNSKSQVFFKMSSLQTDDTAVYYCARRHRDYALDYWGQGISVTVSS
VL: B6 VL with C25S, T26S, L30V, H31Y, D35N, N50K, N81S, H98Y, Y101P, N108K

Tests used:
human CCR8 [1] = target: T1, human CCR8 (human, UniProt P51685 1-355); test: cell-based or functional assay
human CCR8 [2] = target: T1, human CCR8; test: cell-based or functional assay; remark: listed apart in the source
human CCR8 [3] = target: T1, human CCR8; test: cell-based or functional assay; remark: listed apart in the source
human CCR8 [4] = target: T1, human CCR8; test: flow cytometry, hCCR8 transfected CHOK1 cells
pm5 = pm5 (human, sulfated tyrosines at Y15 and Y17); test: ELISA on coated peptide [cont.]
Outline: (§1)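 Each antibody was incubated on the coated peptide panel for 90 min at room temperature at 1 μg/mL and at a tenfold dilution, with unbound mAb washed away. Colour was developed with TMB for 15 min.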

pm6 = pm6 (human, sulfated tyrosines at Y16 and Y17); test: ELISA on coated peptide [cont.]
Outline: as §1

pm8 = pm8 (human, sulfated tyrosines at Y15, Y16 and Y17); test: ELISA on coated peptide [cont.]
Outline: as §1

pm3 = pm3 (human, sulfated tyrosine at Y17); test: ELISA on coated peptide [cont.]
Outline: as §1

human CCR8 [5] = target: T1, human CCR8; test: competition HTRF on HEK-293 cells with hCCR8; blocked ligand CCL1-AF647 [cont.]
human CCR8 [6] = target: T1, human CCR8; test: cell-based or functional assay; remark: listed apart in the source
human CCR8 [7] = target: T1, human CCR8; test: cell-based or functional assay; remark: listed apart in the source
human CCR8 [8] = target: T1, human CCR8; test: flow cytometry, HUT78 cells (native CCR8)
Experimental: The same staining protocol was applied on human CCR8 transfected CHO cell line versus wild type CHO cell line, cutaneous T cell lymphoma HUT78 cell line and human activated T cell model.
Briefly, 1·10⁵ cells per well in a 96 well plate were incubated with a dilution of unconjugated anti-CCR8 mAb at 10 μg/mL then diluted at 1/3.33, 4 dilution points (during 30 min at 4° C.). […] To determine EC50 value, 8 concentrations of anti-CCR8 mAb were tested. Unbound antibodies were washed away with PBS (Invitrogen by Thermofisher Scientific, Illkirch-Graffenstaden, France) supplemented by 2% Fetal Bovine Serum (Invitrogen by Thermofisher Scientific, Illkirch-Graffenstaden, France) and 2 mM EDTA (Invitrogen by Thermofisher Scientific, Illkirch-Graffenstaden, France). Subsequently, cells are centrifuged (5 min at 400 g) and bound antibody is detected with F(ab′)₂-Goat anti-Mouse IgG (H+L) Cross-Adsorbed Secondary Antibody, Alexa Fluor 488 (dilution 1/500) (Invitrogen by Thermofisher Scientific, Illkirch-Graffenstaden, France) or with F(ab′)₂-Goat anti-Human IgG Fc Secondary Antibody, PE (Invitrogen by Thermofisher Scientific, Illkirch-Graffenstaden, France) (dilution 1/1000) at 4° C. for 30 min. Detection reagent is washed away and cells are centrifuged (5 min at 400 g) and resuspended in 30 μL PBS. Bound detection antibody is quantified on a MacsQuant16 (Miltenyi, Gladbach, Germany) (B1 or B2 channel, 5000 events per acquisition).

pm5 (human, sulfated tyrosines at Y15 and Y17), sequence (peptide, as listed by the source): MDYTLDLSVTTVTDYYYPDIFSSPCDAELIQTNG
pm3 (human, sulfated tyrosine at Y17), sequence (peptide, as listed by the source): as above
pm8 (human, sulfated tyrosines at Y15, Y16 and Y17), sequence (peptide, as listed by the source): as above
pm6 (human, sulfated tyrosines at Y16 and Y17), sequence (peptide, as listed by the source): as above

Binder | IC50 (Gi2 BRET, pH 6.5) (human CCR8 [1]) | IC50 (Gi2 BRET, pH 7.4) (human CCR8 [1]) | hCCL1 (100 nM) residual response, Protocol #2, mAb 0.08 µg/mL (human CCR8 [2]) [%] | hCCL1 (100 nM) residual response, Protocol #2, mAb 0.4 µg/mL (human CCR8 [2]) [%] | hCCL1 (100 nM) residual response, Protocol #2, mAb 10 µg/mL (human CCR8 [2]) [%] | hCCL1 (100 nM) residual response, Protocol #3, mAb 0.05 µg/mL (human CCR8 [2]) [%] | hCCL1 (100 nM) residual response, Protocol #3, mAb 0.5 µg/mL (human CCR8 [2]) [%] | hCCL1 (100 nM) residual response, Protocol #3, mAb 5 µg/mL (human CCR8 [2]) [%] | Top plateau value (% of hCCL1 100 nM) with 5 µg/mL mAb, Protocol #3 (human CCR8 [3]) [%] | % positive cells (human CCR8 [4]) [%] | MFI fold change to isotype ctrl (human CCR8 [4]) [fold] | binding result (pm5) | binding result (pm6) | binding result (pm8) | binding result (pm3) | also measured
B1 | 0.162 µg/ml and 1.08 nM | 0.152 µg/ml and 1.01 nM | 97 | 96 | 84 | 96 | 81 | 73 | 292 | 34.7 | 2.34 |  |  |  |  | 
B2 | 0.024 µg/ml and 0.157 nM | 0.048 µg/ml and 0.318 nM | 88 | 82 | 64 | 88 | 71 | 70 |  |  |  | binds | binds | binds | binds | IC50 (read off the curve) (human CCR8 [5]): ~0.02 µg/mL
B3 |  |  |  |  |  |  |  |  |  |  |  |  |  |  |  | ADCC % Max lysis, NK cells Donor 1 (human CCR8 [6]): 22%; ADCC % Max lysis, NK cells Donor 2 (human CCR8 [6]): 20%; ADCC EC50, NK cells Donor 1 (human CCR8 [6]): 2.24 pM; ADCC EC50, NK cells Donor 2 (human CCR8 [6]): 2.16 pM; ADCP % Max of phagocytosis, monocyte-derived macrophages Donor 9 (human CCR8 [7]): 8.29%; % of labelled cells (human CCR8 [8]): 34%; EC50 (human CCR8 [8]): 0.4 nM
B4 |  |  |  |  |  |  |  |  |  |  |  |  |  |  |  | ADCC % Max lysis, NK cells Donor 1 (human CCR8 [6]): 31%; ADCC % Max lysis, NK cells Donor 2 (human CCR8 [6]): 26%; ADCC EC50, NK cells Donor 1 (human CCR8 [6]): 73.3 pM; ADCC EC50, NK cells Donor 2 (human CCR8 [6]): 90.4 pM; ADCP % Max of phagocytosis, monocyte-derived macrophages Donor 9 (human CCR8 [7]): 7.27%
B5 | 0.012 µg/ml and 0.08 nM | 0.015 µg/ml and 0.097 nM | 52 | 68 | 53 | 76 | 62 | 59 | 948 | 77 | 9.2 | binds | binds | binds | binds | 
B6 | 0.051 µg/ml and 0.34 nM | 0.059 µg/ml and 0.396 nM | 101 | 93 | 100 | 92 | 81 | 73 | 663 | 85.7 | 9.8 | binds | binds | binds | binds | 
B7 |  |  | 104 | 46 | 28 | 80 | 57 | 45 | 855 | 56.2 | 4.78 | binds | binds | binds | binds | 
B8 | 0.414 µg/ml and 2.76 nM | 0.359 µg/ml and 2.4 nM | 99 | 97 | 97 | 99 | 84 | 75 | 133 | 85.2 | 11.9 | binds | binds | binds | binds | 
